B1: LINE1-full (parent)
chain: UACGUAGGUGGUUUUCCCCUGAUAGUGCUAAGGGGGCCUGGAAGUUUGGACUGGGCAGAGCUCAACACAGCGUGGCAAAGUGGCUGUGGCUAGACUGCCUCUCUGGAUUCCUCGUCACUCAGCAGGGCAUCUCUGAGAGAAAUGCC

In the data set the parent is B1. The data set can be described thus: self-cleavage, relative activity (ratio to wild type); higher = more cleavage; in vitro, sequencing; the parent is a self-cleaving ribozyme.
As to UACGUAGGUGGUUUUCCCCUGAUAGUGCUAAGGGGGCCUGGAAGUCUGGACUGGGCAGAGCUCAACACAGCGGGGCAAAGUGGCUGUGGCUAGACUGCCUCUCUGGAUUCCUCGUCACUCAGCAGGGCAUCUCUGAGAGAAAUGCC [U46C U73G], the self-cleavage was determined as 1.65.

As to UACGUAGGUGGUUUUCCCCUGAUAGUGCUAAGGGGGCCUGGAAGUCUGGACUGGGCAGAGCUCAACACAGCGUGGCAAAGUGGCUGUGGCUAGACUGCCUCUCUGGAUUCCUCGACACUCAGCAGGGCAUCUCUGAGAGAAAUGCC [U46C U115A], the self-cleavage came out at 1.58.

Regarding UACGUAGGUGGUUUUCCCCUGAUAGUGCUAAGGGGGCCUGGAAGUCUGGACUGGGCAGAGCUCAACACAGCGUGGCAAAGUGGCUGUGGCUAGACUGCCUCUCUGGAUUCCUCGGCACUCAGCAGGGCAUCUCUGAGAGAAAUGCC [U46C U115G], the self-cleavage is 0.

Take UACGUAGGUGGUUUUCCCCUGAUAGUGCUAAGGGGGCCUGGAAGUCUGGACUGGGCAGAGCUCAACACAGCGUGGCAAAGUGGCUGUGGCUAGACUGCCUCUCUGGAUUCCUCGUCACCCAGCAGGGCAUCUCUGAGAGAAAUGCC [U46C U119C]: the self-cleavage was 1.13.

On to UACGUAGGUGGUUUUCCCCUGAUAGUGCUAAGGGGGCCUGGAAGUCUGGACUGGGCAGAGCUCAACACAGCGUGGCAAAGUGGCUGUGGCUAGACUGCCUCUCUGGAUUCCUCGUCACGCAGCAGGGCAUCUCUGAGAGAAAUGCC [U46C U119G], for which the self-cleavage amounted to 1.02.

In the case of UACGUAGGUGGUUUUCCCCUGAUAGUGCUAAGGGGGCCUGGAAGUCUGGACUGGGCAGAGCUCAACACAGCGUGGCAAAGUGGCUGUGGCUAGACUGCCUCUCUGGAUUCCUCGUCACACAGCAGGGCAUCUCUGAGAGAAAUGCC [U46C U119A], the self-cleavage came to 1.26.

Consider UACGUAGGUGGUUUUCCCCUGAUAGUGCUAAGGGGGCCUGGAAGUCUGGACUGGGCAGAGCUCAACACAGCGUGGCAAAGUGGCUGUGGCUAGACUGCCUCUCUGGAUCCCUCGUCACUCAGCAGGGCAUCUCUGAGAGAAAUGCC [U46C U109C], for which the self-cleavage came out at 1.41.

With UACGUAGGUGGUUUUCCCCUGAUAGUGCUAAGGGGGCCUGGAAGUCUGGACUGGGCAGAGCUCAACACAGCGUGGCAAAGUGGCUGUGGCUAGACUGCCUCUCUGGAAUCCUCGUCACUCAGCAGGGCAUCUCUGAGAGAAAUGCC [U46C U108A], the self-cleavage worked out at 1.4.

Turning to UACGUAGGUGGUUUUCCCCUGAUAGUGCUAAGGGGGCCUGGAAGUCUGGACUGGGCAGAGCUCAACACAGCGUGGCAAAGUGGCUGUGGCUAGACUGCCUCUCUGGACUCCUCGUCACUCAGCAGGGCAUCUCUGAGAGAAAUGCC [U46C U108C], the self-cleavage was determined as 1.69.

Take UACGUAGGUGGUUUUCCCCUGAUAGUGCUAAGGGGGCCUGGAAGUCUGGACUGGGCAGAGCUCAACACAGCGUGGCAAAGUGGCUGUGGCUAGACUGCCUCUCUGGAGUCCUCGUCACUCAGCAGGGCAUCUCUGAGAGAAAUGCC [U46C U108G]: the self-cleavage turned out to be 1.15.

Regarding UACGUAGGUGGUUUUCCCCUGAUAGUGCUAAGGGGGCCUGGAAGUCUGGACUGGGCAGAGCUCAACACAGCGUGGCAAAGUGGCUGUGGCUAGACUGCCCCUCUGGAUUCCUCGUCACUCAGCAGGGCAUCUCUGAGAGAAAUGCC [U46C U100C], the self-cleavage amounted to 1.89.

Consider UACGUAGGUGGUUUUCCCCUGAUAGUGCUAAGGGGGCCUGGAAGUCUGGACUGGGCAGAGCUCAACACAGCGUGGCAAAGUGGCUGUGGCUAGACUGCCUCUCUGGAUUCCUCGUCACUCAGCAGGGCAUCUCAGAGAGAAAUGCC [U46C U134A], for which the self-cleavage is 1.1.

UACGUAGGUGGUUUUCCCCUGAUAGUGCUAAGGGGGCCUGGAAGUCUGGACUGGGCAGAGCUCAACACAGCGUGGCAAAGUGGCUGUGGCUAGACUGCCUCUCUGGAUUCCUCGUCACUCAGCAGGGCAUCUCCGAGAGAAAUGCC [U46C U134C]: the self-cleavage was 1.53.

In the case of UACGUAGGUGGUUUUCCCCUGAUAGUGCUAAGGGGGCCUGGAAGUGUGGACUGGGCAGAGCUCAACACAGCGUGGCAAAGUGGCUGUGGCUAGACUGCCUCUCUGGAUUCCUCGUCACUCAGCAGGGCGUCUCUGAGAGAAAUGCC [U46G A129G], the self-cleavage was 1.93.

Regarding UACGUAGGUGGUUUUCCCCUGAUAGUGCUAAGGGGGCCUGGAAGUCUGGACUGGGCAGAGCUCAACACAGCGUGGCAAAGUGGCUGUGGCUAGACUGCCUCACUGGAUUCCUCGUCACUCAGCAGGGCAUCUCUGAGAGAAAUGCC [U46C U102A], the self-cleavage was 1.09.

Take UACGUAGGUGGUUUUCCCCUGAUAGUGCUAAGGGGGCCUGGAAGUCUGGACUGGGCAGAGCUCAACACAGCGUGGCAAAGUGGCUGUGGCUAGACUGCCUCCCUGGAUUCCUCGUCACUCAGCAGGGCAUCUCUGAGAGAAAUGCC [U46C U102C]: the self-cleavage came out at 1.13.

Consider UACGUAGGUGGUUUUCCCCUGAUAGUGCUAAGGGGGCCUGGAAGUCUGGACUGGGCAGAGCUCAACACAGCGUGGCAAAGUGGCUGUGGCUAGACUGCCUCUCCGGAUUCCUCGUCACUCAGCAGGGCAUCUCUGAGAGAAAUGCC [U46C U104C], for which the self-cleavage is 1.96.

UACGUAGGUGGUUUUCCCCUGAUAGUGCUAAGGGGGCCUGGAAGUCUGGACAGGGCAGAGCUCAACACAGCGUGGCAAAGUGGCUGUGGCUAGACUGCCUCUCUGGAUUCCUCGUCACUCAGCAGGGCAUCUCUGAGAGAAAUGCC [U46C U52A]: the self-cleavage is 1.45.

Consider UACGUAGGUGGUUUUCCCCUGAUAGUGCUAAGGGGGCCUGGAAGUGUGGACUGGGCAGAGCUCAACACAGCGUGGCAAUGUGGCUGUGGCUAGACUGCCUCUCUGGAUUCCUCGUCACUCAGCAGGGCAUCUCUGAGAGAAAUGCC [U46G A79U], for which the self-cleavage is 2.15.

On to UACGUAGGUGGUUUUCCCCUGAUAGUGCUAAGGGGGCCUGGAAGUGUGGACUGGGCAGAGCUCAACACAGCGUGGCAAAGUGGCUGUGGCUAGACUGCCUCUCUGGAUUCCUCGUCACUCAGCAGGGCAUCUCUGAGAGAGAUGCC [U46G A141G], for which the self-cleavage is 1.16.

As to UACGUAGGUGGUUUUCCCCUGAUAGUGCUAAGGGGGCCUGGAAGUGUGGACUGGGCAGAGCUCAACACAGCGUGGCAAAGUGGCUGUGGCUAGACUGCCUCUCUGGAUUCCUCGUCACUCAGCAGGGCAUCUCUGAGAGGAAUGCC [U46G A140G], the self-cleavage is 1.78.

Regarding UACGUAGGUGGUUUUCCCCUGAUAGUGCUAAGGGGGCCUGGAAGUCUGGACUGGGCAGAGCUCAACACAGCGUGGCAAAGUGGCUGUGGCUAGACUGCCUCUCUGGAUUCCUCGUCACUCAGCAGGGCAACUCUGAGAGAAAUGCC [U46C U130A], the self-cleavage is 1.68.

Take UACGUAGGUGGUUUUCCCCUGAUAGUGCUAAGGGGGCCUGGAAGUCUGGACUGGGCAGAGCUCAACACAGCGUGGCAAAGUGGCUGUGGCUAGACUGCCUCUCUGGAUUCCUCGUCACUCAGCAGGGCACCUCUGAGAGAAAUGCC [U46C U130C]: the self-cleavage was 1.54.

Consider UACGUAGGUGGUUUUCCCCUGAUAGUGCUAAGGGGGCCUGGAAGUCUGGACUGGGCAGAGCUCAACACAGCGUGGCAAAGUGGCUGUGGCUAGACUGCCUCUCUGGAUUCCCCGUCACUCAGCAGGGCAUCUCUGAGAGAAAUGCC [U46C U112C], for which the self-cleavage worked out at 1.78.

For UACGUAGGUGGUUUUCCCCUGAUAGUGCUAAGGGGGCCUGGAAGUCUGGACUGGGCAGAGCUCAACACAGCGUGGCAAAGUGGCUGUGGCUAGACUGCCUCUCUGGAUUCCACGUCACUCAGCAGGGCAUCUCUGAGAGAAAUGCC [U46C U112A], the self-cleavage turned out to be 1.26.

Take UACGUAGGUGGUUUUCCCCUGAUAGUGCUAAGGGGGCCUGGAAGUCUGGACUGGGCAGAGCUCAACACAGCGUGGCAAAGUGGCUGCGGCUAGACUGCCUCUCUGGAUUCCUCGUCACUCAGCAGGGCAUCUCUGAGAGAAAUGCC [U46C U87C]: the self-cleavage was 0.43.

With UACGUAGGUGGUUUUCCCCUGAUAGUGCUAAGGGGGCCUGGAAGUCUGGACUGGGCAGAGCUCAACACAGCGUGGCAAAGUGGCUGAGGCUAGACUGCCUCUCUGGAUUCCUCGUCACUCAGCAGGGCAUCUCUGAGAGAAAUGCC [U46C U87A], the self-cleavage turned out to be 0.13.

Turning to UACGUAGGUGGUUUUCCCCUGAUAGUGCUAAGGGGGCCUGGAAGUGUGGACUGGGCAGAGCUCAACACUGCGUGGCAAAGUGGCUGUGGCUAGACUGCCUCUCUGGAUUCCUCGUCACUCAGCAGGGCAUCUCUGAGAGAAAUGCC [U46G A69U], the self-cleavage was determined as 0.1.

With UACGUAGGUGGUUUUCCCCUGAUAGUGCUAAGGGGGCCUGGAAGUGUGGACUGGGCAGAGCUCAACACGGCGUGGCAAAGUGGCUGUGGCUAGACUGCCUCUCUGGAUUCCUCGUCACUCAGCAGGGCAUCUCUGAGAGAAAUGCC [U46G A69G], the self-cleavage worked out at 0.

As for UACGUAGGUGGUUUUCCCCUGAUAGUGCUAAGGGGGCCUGGAAGUGUGGGCUGGGCAGAGCUCAACACAGCGUGGCAAAGUGGCUGUGGCUAGACUGCCUCUCUGGAUUCCUCGUCACUCAGCAGGGCAUCUCUGAGAGAAAUGCC [U46G A50G], the self-cleavage came to 0.92.

In the case of UACGUAGGUGGUUUUCCCCUGAUAGUGCUAAGGGGGCCUGGAAGUGUGGACUGGGCAGAGCUCAACACAGCGUGGCAGAGUGGCUGUGGCUAGACUGCCUCUCUGGAUUCCUCGUCACUCAGCAGGGCAUCUCUGAGAGAAAUGCC [U46G A78G], the self-cleavage was 0.6.

In the case of UACGUAGGUGGUUUUCCCCUGAUAGUGCUAAGGGGGCCUGGAAGUCUGGACUGGGCAGAGCUCAACACAGCGUGGCAAAGUGGCUGUGGCAAGACUGCCUCUCUGGAUUCCUCGUCACUCAGCAGGGCAUCUCUGAGAGAAAUGCC [U46C U91A], the self-cleavage turned out to be 0.53.

In the case of UACGUAGGUGGUUUUCCCCUGAUAGUGCUAAGGGGGCCUGGAAGUGUGGACUGGGCAGAGCUCAACACAGCGUGGCAAAGUGGCUGUGGCUAGACUGCCUCUCUGGAUUCCUCGUCGCUCAGCAGGGCAUCUCUGAGAGAAAUGCC [U46G A117G], the self-cleavage worked out at 2.26.

For UACGUAGGUGGUUUUCCCCUGAUAGUGCUAAGGGGGCCUGGAAGUCUGGACUGGGCAGAGCUCAACACAGCGUGGCAAAGCGGCUGUGGCUAGACUGCCUCUCUGGAUUCCUCGUCACUCAGCAGGGCAUCUCUGAGAGAAAUGCC [U46C U81C], the self-cleavage stood at 1.46.

On to UACGUAGGUGGUUUUCCCCUGAUAGUGCUAAGGGGGCCUGGAAGUCAGGACUGGGCAGAGCUCAACACAGCGUGGCAAAGUGGCUGUGGCUAGACUGCCUCUCUGGAUUCCUCGUCACUCAGCAGGGCAUCUCUGAGAGAAAUGCC [U46C U47A], for which the self-cleavage is 1.37.

In the case of UACGUAGGUGGUUUUCCCCUGAUAGUGCUAAGGGGGCCUGGAAGUCCGGACUGGGCAGAGCUCAACACAGCGUGGCAAAGUGGCUGUGGCUAGACUGCCUCUCUGGAUUCCUCGUCACUCAGCAGGGCAUCUCUGAGAGAAAUGCC [U46C U47C], the self-cleavage was 1.95.

On to UACGUAGGUGGUUUUCCCCUGAUAGUGCUAAGGGGGCCUGGAAGUCUGGACUGGGCAGAGCUCAACACAGCGUGGCAAAGUGGCCGUGGCUAGACUGCCUCUCUGGAUUCCUCGUCACUCAGCAGGGCAUCUCUGAGAGAAAUGCC [U46C U85C], for which the self-cleavage worked out at 0.35.

UACGUAGGUGGUUUUCCCCUGAUAGUGCUAAGGGGGCCUGGAAGUCUGGACUGGGCAGAGCUCAACACAGCGUGGCAAAGUGGCGGUGGCUAGACUGCCUCUCUGGAUUCCUCGUCACUCAGCAGGGCAUCUCUGAGAGAAAUGCC [U46C U85G]: the self-cleavage turned out to be 0.37.

For the variant UACGUAGGUGGUUUUCCCCUGAUAGUGCUAAGGGGGCCUGGAAGUCUGGACUGGGCAGAGCACAACACAGCGUGGCAAAGUGGCUGUGGCUAGACUGCCUCUCUGGAUUCCUCGUCACUCAGCAGGGCAUCUCUGAGAGAAAUGCC [U46C U62A], the self-cleavage was 0.05.

The record behind these values is the RNAGym collection of RNA variant scans (doi:10.7554/elife.90254).
